Source: FireProtDB (doi:10.1021/bi962163z)

Details: Homo sapiens, Thermal, DSC, reversible: no, whole UniProt chain shown

B1: Annexin A5 wild type, P08758 (protein)
chain: MAQVLRGTVTDFPGFDERADAETLRKAMKGLGTDEESILTLLTSRSNAQRQEISAAFKTLFGRDLLDDLKSELTGKFEKLIVALMKPSRLYDAYELKHALKGAGTNEKVLTEIIASRTPEELRAIKQVYEEEYGSSLEDDVVGDTSGYYQRMLVVLLQANRDPDAGIDEAQVEQDAQALFQAGELKWGTDEEKFITIFGTRSVSHLRKVFDKYMTISGFQIEETIDRETSGNLEQLLLAVVKSIRSIPAYLAETLYYAMKGAGTDDHTLIRVMVSRSEIDLFNIRKEFRKNFATSLYSMIKGDTSGDYKKALLLLCGEDD
With B1 the Tm (pH 4, Sodium phosphate 20 mM) was 40.6 °C, the “unfolding enthalpy (calorimetric)” value (pH 4, Sodium phosphate 20 mM) was 128 kcal/mol and the “unfolding enthalpy (van 't Hoff)” value (pH 4, Sodium phosphate 20 mM) was 151 kcal/mol. For the same protein, the Tm (pH 6, Sodium phosphate 20 mM) was 50.5 °C, the “unfolding enthalpy (calorimetric)” value (pH 6, Sodium phosphate 20 mM) was 147 kcal/mol and the “unfolding enthalpy (van 't Hoff)” value (pH 6, Sodium phosphate 20 mM) was 174 kcal/mol. For the same protein, the Tm (pH 7, Sodium phosphate 20 mM) was 53.4 °C, the “unfolding enthalpy (calorimetric)” value (pH 7, Sodium phosphate 20 mM) was 163 kcal/mol and the “unfolding enthalpy (van 't Hoff)” value (pH 7, Sodium phosphate 20 mM) was 189 kcal/mol. For the same protein, the Tm (pH 8, Sodium phosphate 20 mM) was 54.4 °C, the “unfolding enthalpy (calorimetric)” value (pH 8, Sodium phosphate 20 mM) was 162 kcal/mol and the “unfolding enthalpy (van 't Hoff)” value (pH 8, Sodium phosphate 20 mM) was 199 kcal/mol. The Tm (pH 8, Tris 50 mM, KCl 100 mM) was 52.5 °C, the “unfolding enthalpy (calorimetric)” value (pH 8, Tris 50 mM, KCl 100 mM) was 163 kcal/mol and the “unfolding enthalpy (van 't Hoff)” value (pH 8, Tris 50 mM, KCl 100 mM) was 190 kcal/mol.
